The text below walks through data of patent publication US20250295792A1, “POLYETHYLENE GLYCOL-MODIFIED FORM OF KININ OR DERIVATIVE THEREOF AND PHARMACEUTICAL USE THEREOF” (ZonHon Biopharma Institute, Inc., priority 2022, published 2025).

Where no end group is shown, it is not given here. [ ]: non-standard residue; d: D form. 2Thi = N[C@@H](Cc1cccs1)C(=O)O

In the assay the target is B2 receptor. The experiment in a line: cell-based or functional assay.
Chain of B2 receptor (P30411 whole entry): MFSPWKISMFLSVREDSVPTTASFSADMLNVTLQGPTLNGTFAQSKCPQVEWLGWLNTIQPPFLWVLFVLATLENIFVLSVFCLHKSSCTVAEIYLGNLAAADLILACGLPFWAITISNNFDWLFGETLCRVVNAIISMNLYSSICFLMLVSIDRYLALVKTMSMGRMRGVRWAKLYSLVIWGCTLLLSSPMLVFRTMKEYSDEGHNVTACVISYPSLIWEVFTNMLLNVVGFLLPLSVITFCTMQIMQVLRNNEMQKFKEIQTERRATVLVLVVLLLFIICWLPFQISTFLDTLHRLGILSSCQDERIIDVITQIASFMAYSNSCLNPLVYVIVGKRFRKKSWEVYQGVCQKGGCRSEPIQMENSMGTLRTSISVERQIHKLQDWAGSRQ
For [2Thi]SPFR [Lys-BKm09], the Relative affinity activity (B2-NFAT-CHO-K1 luciferase reporter gene assay, from EC50) was 0%. As for CRRPPG[2Thi]SPFR [Lys-BKm13], the figure is 115%; as for KRPPGXSPF ({THI} (β-2-thiophenylalanine) at position 6: KRPPG{THI}SPF) [Lys-BKm05], < 10%. As for RPPG[2Thi]SPFR [Lys-BKm02], the Relative affinity activity (B2-NFAT-CHO-K1 luciferase reporter gene assay, from EC50) was found to be 100%. The figure for CRPPG[2Thi]SPFR [Lys-BKm15] is 125%; for PG[2Thi]SPFR [Lys-BKm08] it is < 10%; for SPFR [Lys-BKm10] it is 0%. The figure for CRRRPPG[2Thi]SPFR [Lys-BKm16] is 120%.
